Experimental data taken from patent US20050084844A1.
Several values for one entry are separate records, joined by “and”; a condition that tells them apart may be missing. Identical values can stand only once.

Legend:
[1] = target: active TGFβ generated by positive B9F clones (rat); assay: cell-based or functional assay
[2] = target: endogenous latent TGFβ secreted by B9F cells (latent TGFβ1, 2 and 3) (rat); assay: cell-based or functional assay

Substance | luciferase activity of TMLC co-culture with positive clones, with against without the TGFβ inhibitor (LAP) (fraction of the value without inhibitor) [1] | rightward shift in GFP fluorescence of B9F reporter cells (percent of cells in the bright gate) [2]
Recombinant simian TGFβ1 LAP (from UniProt P09533 30-278) | 0.33 and 0.5 | 
integrin ανβ6 on B9F reporter cells (retrovirally expressed β6-integrin subunit paired with the endogenously expressed αν-integrin subunit) (receptor) |  | 48%
integrin ανβ8 on B9F reporter cells (retrovirally expressed β8-integrin subunit paired with the endogenously expressed αν-integrin subunit) (receptor) |  | 25%
